Here are results for one substance from article PMC6141708.

This assay addresses recombinant GST-RhoA (UniProt P61586). As to the kind of experiment: pull-down; recombinant GST-RhoA on beads; lysates of 293T cells transfected with WT or S9A Fam65b-GFP; 2 h at 4°C; pull-down buffer; anti-GFP immunoblot, band intensities in the pull-down normalised to the total lysate, four independent experiments.
Sequence of UniProt P61586 (P61586 whole entry): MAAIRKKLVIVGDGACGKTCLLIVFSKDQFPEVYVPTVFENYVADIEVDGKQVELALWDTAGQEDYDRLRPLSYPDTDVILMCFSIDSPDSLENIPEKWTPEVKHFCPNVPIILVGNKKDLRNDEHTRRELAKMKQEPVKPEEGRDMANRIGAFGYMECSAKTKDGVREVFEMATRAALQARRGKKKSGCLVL

“Fam65b(S9A)-GFP (isoform 2) (natural protein)”: the fold of Fam65b bound to RhoA against WT Fam65b-GFP is 1.8 fold.
